In the DeepSol protein solubility set:

Experiment: soluble on expression in E. coli; label from the status in PepcDB or PDB records
In the case of “MGHHHHHHSHMIGSGLSDLFDLTSGVGTLSGSYVAPKAVWLPAMKAKGLEISGTFTRQVGSISMDLQLTNKALQVMTDFAIQFNRNSFGLAPAAPLQVHAPLSPNQTVEISLPLSTVGSVMKMEPLNNLQVAVKNNIDVFYFSTLYPLHILFVEDGKMDRQMFLATWKDIPNENEAQFQIRDCPLNAEAASSKLQSSNIFTVAKRNVEGQDMLYQSLKLTNGIWVLAELRIQPGNPSCTDLELSLKCRAPEVSQHVYQAYETILKN”, the “soluble on expression in E. coli” value was “soluble”.
In the case of “MGHHHHHHSHMKDSEKHIEVEVRKFLALKQTPDFHTVIGDTVTGLLERCKAEPSFYPRNCLMQLIQTHVLSYSLCPDLMEIALKKKDVQLLQLCLQQFPDIPESVTCACLKIFLSIGDDSLQETDVNMESVFDYSINSVHDEKMEEQTEILQNGFNPEEDKCNNCDQELNKKPQDETKESTSCPVVQKRAALLNAILHSAYSETFLLPHLKDIPAQHITLFLKYLYFLYLKCSENATMTLPGIHPPTLNQIMDWICLLLDANFTVVVMMPEAKRLLINLYKLVKSQISVYSELNKIEVSFRELQKLNQEKNNRGLYSIEVLELF”, the “soluble on expression in E. coli” value was “not soluble”.
In the case of “MGHHHHHHSHMKGFTATLFLWTLIFPSCSGGGGGKAWPTHVVCSDSGLEVLYQSCDPLQDFGFSVEKCSKQLKSNINIRFGIILREDIKELFLDLALMSQGSSVLNFSYPICEAALPKFSFCGRRKGEQIYYAGPVNNPEFTIPQGEYQVLLELYTEKRSTVACANATIMCS”, the “soluble on expression in E. coli” value was “not soluble”.
With “MGHHHHHHSHMKNSSSVSNTLTNGCVINGHLDFPSTTPLSGMESRNGQCLTGTNGISSGLAPGQPFPSSQGSLCISGTEEPEKTLRANPELCGSLHLNGSPSSCIASRPSWVEDIGDNLYYGHYHGFGDTAESIPELNSVVEHSKSVKVQERYDSAVLGTMHLHHGS” the “soluble on expression in E. coli” value was “soluble”.
With “MGHHHHHHSHMKPVKHLLTTSNKSANVPALTTKKGLHNLPLSPELKEKHNAKLIHDKIEPMVLRSPPTGESILRYALPIPSSKTKNLLPEDEMIGKIIKHLKMVVSTLEETYGHCDQNGEEPFVKHEHEELSLSVGDDMNSFLTYCSQFAAQLEEALKEEQNILESLFKWFQWQVNQMEEISKDQTLLQAEPPKPDKTVILNIAEIVRLVQRFEELKNRLKQRSKSSVKVMLSKTMDKENRPEAVKSCEALAQKIEEFLEAHSTDEFKDVSATEPQL” the “soluble on expression in E. coli” value was “soluble”.
For “MGHHHHHHSHMLSPERLALPDYEYLAQRHVLTYMEDAVCQLLENREDISQYGIARFFTEYFNSVCQGTHILFREFSFVQATPHNRVSFLRAFWRCFRTVGKNGDLLTMKEYHCLLQLLCPDFPLELTQKAARIVLMDDAMDCLMSFSDFLFAFQIQFYYSEFLDSVAAIYEDLLSGKNPNTVIVPTSSSGQHRQRPALGGAGTLEGVEASLFYQCLENLCDRHKYSCPPPALVKEALSNVQRLTFYGFLMALSKHRGINQALGALPDKGDLMHDPAMDEELERLLAQVPGLVNSVTASPEASCLPSRTPPRVGSPWRPLHHSRKVDGESDGSTEETDESET”, the “soluble on expression in E. coli” value was “not soluble”.
For “MGHHHHHHSHMLSSNGASKVANSEAMILDKNLESVNSPIEKSSVNYEPSNPSEKGSKKINLSSDQNKSVSESNNDDVMLISVESPNLTTPTTSNPTDTRKITSGNSSNSPNAEVMAVQKKLDSIIDLTKEGLSNCNTESPVSPLESHSKAASNSKETTPLAQNAVQVPESFEHLPPLPEPPAPLPELVDKTRDTLPPQKPELKVKRVFRPNGIALTWNITKINPKCAPVESYHLFLCHENSNNKLIWKKIGEIKALPLPMACTLSQFLASNRYYFTVQSKDIFGRYGPFCDIKSIPGFSENLT”, the “soluble on expression in E. coli” value was “soluble”.
With “MGHHHHHHSHMPYLVIEHLEDISEWLLLEYKHVAQWWGDKLIFTNVKPKERKILAEIGSVVTESITKLPVDRSKVIVLDLQAKEELKPEDISEDTIIVVGGILGDAIPRGRTRKLITSKMEGVKVRHIGRPQFSIDGASIIAKLISEGKRLEEIEYEENPTIKLDEFSEITFHYAVPKLNGKLLLTPGLIELQKKELGYLEEDEDDGLIEFFEGKGEL” the “soluble on expression in E. coli” value was “soluble”.
For “MGHHHHHHSHMQTDIHDEPVNLGFGVQFEPDDLYRLRSQFLPLGKIGGKPSWLNPKNLPKSADLLCNVCEKPLCFLMQVSANGGINDPPHAFHRSLFLFVCRNPSCSRTNDAANLKAFRCQLPRANDYYSFDGPMDPDLDGDVADPRAPADGPGLCRICGCSAAKKCAKCQVARYCSQAHQVIDWPAHKLECAKAATDGSITDEPKNPRNAFCFKEFGVEIDQEYMPANLFDGLSDDEGDEEEEEGNDEDETEEEKKARIREFEKFVKENKGKNADMTKEDLDEATAEQPKDIDFDKFNRLVNLQPDQIIRYKRYGQPLRATGLSELPEVVEPCELCGAPRRFEMQLMPHLLSLIDVDAIGQSIDWASVYVYTCSASCQIADDGYAKEFVAKQDFL”, the “soluble on expression in E. coli” value was “soluble”.
For “MGHHHHHHSHMRISPGQINQVRPKLPLLKILHAAGAQGEMFTVKEVMHYLGQYIMVKQLYDQQEQHMVYCGGDLLGELLGRQSFSVKDPSPLYDMLRKNLVTLATATT”, the “soluble on expression in E. coli” value was “not soluble”.
With “MGHHHHHHSHMSLSSSACPLLLTLRDHLLQLEQQLCFSLFKIFWQMLVEKLDVYIYQEIILANHFNEGGAAQLQFDMTRNLFPLFSHYCKRPENYFKHIKEACIVLNLNVGSALLLKDVLQSASGQLPATAALNEVGIYKLAQQDVEILLNLRTNWPNTGK” the “soluble on expression in E. coli” value was “not soluble”.
For “MGHHHHHHSHMSPDQFLLTVSALQHARNSGEFAYPCRPQTEITDVWGPSISYPRKVLNFKGKSIQRAVDRLRLSNPPIDVKRTSIPLEIQKLQPNLKISLHSPRAQSTIPEPMIIRSRFSGSLKGGDQVTSSIERAVCSTGPLTSMQVIKPNRMLAPQVGTATLSLKKERPRIYTALDPFRVNAEFVLLTVKEEKEHQEAKMKEYQARESTGVVDPGKASKAAWIRKIKGLPIDNFTKQGKTAAPELGQNVFI”, the “soluble on expression in E. coli” value was “soluble”.
In the case of “MGHHHHHHSHMSVPRGPIAQWADGAISPNGHRPQLRAASGEDSTEEALAAAAAPWEGGPVPGVDTSPFAKSLGHSRGEADLFDSGDIFSTGTGSQSVERTKPKAKIAENPANPPVGGKAKSPMFPALGEASSDDDLFQSAKPKPAKKTNPFPLLEDEDDLFTDQKVKKNETKSSSQQDVILTTQDIFEDDIFATEAIKPSQKTREKEKTLESNLFDDNIDIFADLTVKPKEKSKKKVEAKSIFDDDMDDIFSTGIQAKTTKPKSRSAQAAPEPRFEHKVSNIFDDPLNAFGGQ”, the “soluble on expression in E. coli” value was “not soluble”.
For “MGHHHHHHSHMTITSGSSLPDGCEGRGLSVHTDMASVTKAMAAPESGLEVRDRMWLKITIPNAFLGSDVVDWLYHHVEGFPERREARKYASGLLKAGLIRHTVNKITFSEQCYYVFGDLSGGC”, the “soluble on expression in E. coli” value was “soluble”.
In the case of “MGHHHHHHSHMTKHPPNRRGISFEVGAQLEARDRLKNWYPAHIEDIDYEEGKVLIHFKRWNHRYDEWFCWDSPYLRPLEKIQLRKEGLHEEDGSSEFQINEQVLACWSDCRFYPAKVTAVNKDGTYTVKFYDGVVQTVKHIHVKAFSKDQNIVGNARPKETDHKSLSSSPDKREKFKEQRKATVNVKKDKEDKPLKTEKRPKQPDKEGKLICSEKGKVSEKSLPKNEKEDKENISENDREYSGDAQKTRQTPFHSSYCCGFKLSNFATNNIGTEKKENIKRM”, the “soluble on expression in E. coli” value was “not soluble”.
For “MGHHHHHHSHMTLEEVRGQDTVPESTARMQGAGKALHELLLSAQRQGCLTAGVYESAKVLNVDPDNVTFCVLAAGEEDEGDIALQIHFTLIQAFCCENDIDIVRVGDVQRLAAIVGAGEEAGAPGDLHCILISNPNEDAWKDPALEKLSLFCEESRSVNDWVPSITLPE”, the “soluble on expression in E. coli” value was “soluble”.
In the case of “MGHHHHHHSHMTLIYVDADNTRNELKATTGSNFTITHRKDPLTTKWKTVFGNNGDQWLCNVTGIGNATVNSNATICVSSCGHNTLDLCNLKSGDSGFFDLSRWFGENMDEYSGDVWHLEVS”, the “soluble on expression in E. coli” value was “soluble”.
With “MGHHHHHHSHMVGWQEGANHKNGAGRSQKQEMAEKMVPEVASGEEIGGRSEAGRESPDLFRPNTVEARDRPAGPPFSKSASVRVLQRSRTNRDYIPIEHIQSPIGIYNML” the “soluble on expression in E. coli” value was “not soluble”.
For “MGHHHHHHSHMVTHSKFPAAGMSRPLDTSLRLKTFSSKSEYQLVVNAVRKLQESGFYWSAVTGGEANLLLSAEPAGTFLIRDSSDQRHFFALSVKTQSGTKNLRIQCEGGSFSLQSDPRSTQPVPRFDCVLKLVYHYMPPPGAPSFPSPPTEPSSEVPEQPSAQPLPGSPPRRAYYIYSGGEKIPLVLSRPLSSNVATLQHLCRKTVNGHLDSYEKVTQLPGPIREFLDQYDAPL”, the “soluble on expression in E. coli” value was “not soluble”.
With “MGHHHHHHSHMVTQFKEKNESLQYETSSPTVQLKIPQLRVSSVSKSQPDGSGLLDVMYQVSKTSSVLEGSALQKLKNILPKQNKIECSGPVTHSSVDSYFLHGDLSPLCLNSKNGTVDGTSENTEDGLDRKDSKQPRKKRGRYRQYDHEIMEEAIAMVMSGKMSVSKAQGIYGVPHSTLEYKVKERSGTLKTPPKKKLRLPDTGLYNMTDSGTGSCKNSSKPV” the “soluble on expression in E. coli” value was “soluble”.
For “MGHHHHHHSHMVVVAAAPNPADGTPKVLLLSGQPASAAGAPAGQALPLMVPAQRGASPEAASGGLPQARKRQRLTHLSPEEKALRRKLKNRVAAQTARDRKKARMSELEQQVVDLEEENQKLLLENQLLREKTHGLVVENQELRQRLGMDALVAEEEAEAKGNEVRPVAGSAESAALRLRAPLQQVQAQLSPLQNISPWILAVLTLQIQSLISCWAFWTTWTQSCSSNALPQSLPAWRSSQRSTQKDPVPYQPPFLCQWGRHQPSWKPLMN”, the “soluble on expression in E. coli” value was “not soluble”.
In the case of “MGHHHHHHSHPLKMETSGMTTPSLKTDGGRRTATSPPPTTSQTIISTIPSTAMHTRSTAAPIPILPERGVSLFPYGADAGDLEFVRRTVDFTSPLFKPATGFPLGSSLRDSLYASQAGTLWPWWLRSGTMLTSPLVGGPHFIRNTRRSMVNTAC”, the “soluble on expression in E. coli” value was “not soluble”.
With “MGHHHHHHSHPPCRPCRYKKYVFLDPLAGAVTKTHVMLGAETEEKLFDAPLSISKREQLEQQVGGAGQRWRQVQWPRALPELLSSQGCWALYSTHGRCTQGLVGCPCRSLSPLTCPCLILQVPENYFYVPDLGQVPEIDVPSYLPDLPGIANDLMYIADLGPGIAPSAPGTIPELPTFHTEVAEPLKTYKMGY” the “soluble on expression in E. coli” value was “not soluble”.
For “MGHHHHHHSHSMKEENLCQAFSDALLCKIEDIDNEDWENPQLCSDYVKDIYQYLRQLEVLQSINPHFLDGRDINGRMRAILVDWLVQVHSKFRLLQETLYMCVGIMDRFLQVQPVSRKKLQLVGITALLLASKYEEMFSPNIEDFVYITDNAYTSSQIREMETLILKELKFELGRPLPLHFLRRASKAGEVDVEQHTLAKYLMELTLIDYDMVHYHPSKVAAAASCLSQKVLGQGKWNLKQQYYTGYTENEVLEVMQHMAKNVVKVNENLTKFIAIKNKYASSKLLKISMIPQLNSKAVKDLASPLIGRS”, the “soluble on expression in E. coli” value was “not soluble”.
In the case of “MGHHKAMPYADVAAFIIELRKREAVAATALEFTILTAARSGETLGAKWHEIDWKDKIWTVPAERMKAAREHRVPLSSRTITILKKLAEFGSDENSFVFPGQKPGKPLSVMAMDMVLRRMEVDVTVHGFRSSFRDWCGEVSNFPRDVAEAALAHVVGDKTERAYRRGDALEKRRKLMAAWEKFCIAEIKKNPLEHHHHHH”, the “soluble on expression in E. coli” value was “not soluble”.
For “MGHTMPAHTPPAQTAPAAQKAGAQALPVTVQGATVAAVPPSIRDTAAYMTLTNKSDQPIKLVGAATPLATSPMLMTTTHSGGMAGMKMVPWLTIPARGTLTLQRDGDHVMLMGLKRPLKVGETVNITLKATDGRTLNVAATVKKNIEGR”, the “soluble on expression in E. coli” value was “soluble”.
In the case of “MGIRELNLTKEQHEWLNGWLELWAHGLSGRLEKRMSSVIAKFMESIEPGRVMTRPMCNDDDGMLISQVVDSVMYIDKKAFGILLSYYAHGSSKHAIASYYHRVARPRKMLCRGGGRIQKPSLATCRREVDEILNASLFMIYPVLDSAFKNRKRVEKIKHVALEHHHHHH”, the “soluble on expression in E. coli” value was “soluble”.
